In US20060241020A1, “Protein tyrosine phosphatase inhibitors” (Applied Research Systems ARS Holdings N.V., priority 2002, published 2006):

Experiment: pNPP hydrolysis, kinetic parameters
Format: biochemical
Details: generic substrate pNPP, 0-60 mM, pH 6.8, room temperature
Procedure: For pNPP hydrolysis, 200 ng of PTP was incubated with varing amounts of the generic substrate (0-60 mM) in assay buffer (50 mM Tris pH 6.8 and 2 mM DTT) in a total volume of 50 μl at room temperature. Plates were read at 405 nm and kinetic parameters were determined using a non linear regression programme (Graphpad, Prism®).

B1: Sap-1WT: wild-type PTP-Sap1 catalytic domain (GST fusion) tested on pNPP (protein)
chain: LKRRNKKKQQKPELRDLVFSSPGDIPAEDFADHVRKNERDSNCGFADEYQQLSLVGHSQSQMVASASENNAKNRYRNVLPYDWSRVPLKPIHEEPGSDYINASFMPGLWSPQEFIATQGPLPQTVGDFWRLVWEQQSHTLVMLTNCMEAGRVKCEHYWPLDSQPCTHGHLRVTLVGEEVMENWTVRELLLLQVEEQKTLSVRQFHYQAWPDHGVPSSPDTLLAFWRMLRQWLDQTMEGGPPIVHCSAGVGRTGTLIALDVLLRQLQSEGLLGPFSFVRKMRESRPLMVQTEAQYVFLHQCILRFLQQSAQAPAEKEVPYEDVENLIYENVAAIQAHKLEV
modifications: left off: a dimerising Fc or GST
notes: wild-type PTP-Sap1 catalytic domain (GST fusion) tested on pNPP
Km: 2.67 mM
